The source of these data is paper doi:10.1101/2025.01.11.632520, “A De Novo Design Strategy to Convert FAcD from Dimer to Active Monomer” (bioRxiv, 2025).

The data set deals with the molecule itself. The data set is described as follows: native MS; proteins buffer-exchanged into 0.2 M ammonium acetate (pH 7); Q-Exactive Plus Orbitrap, collision voltage 20 V; room temperature; self-association (dimer vs monomer).

B1: Fluoroacetate dehalogenase (FAcD), wild-type (enzyme, UniProt Q6NAM1 1-302, looked up)
chain: MPDLADLFPGFGSEWINTSSGRIFARVGGDGPPLLLLHGFPQTHVMWHRVAPKLAERFKVIVADLPGYGWSDMPESDEQHTPYTKRAMAKQLIEAMEQLGHVHFALAGHDRGARVSYRLALDSPGRLSKLAVLDILPTYEYWQRMNRAYALKIYHWSFLAQPAPLPENLLGGDPDFYVKAKLASWTRAGDLSAFDPRAVEHYRIAFADPMRRHVMCEDYRAGAYADFEHDKIDVEAGNKIPVPMLALWGASGIAQSAATPLDVWRKWASDVQGAPIESGHFLPEEAPDQTAEALVRFFSAAP
notes: Fluoroacetate dehalogenase (FAcD), gene Rpa1163, residues 1-302; His6-SUMO tag cleaved off by ULP1; Homodimer by native MS; also called WT; WT-Di; source: E. coli BL21(DE3), purified (nickel column, SEC); not shown: His6, N-terminal, cleaved; SUMO, N-terminal, cleaved
For the protein B1, the “stoichiometry N” value is 2.
